For this experiment, the target named is T1, interleukin-23 receptor (IL-23R), Q5VWK5.
T1 chain: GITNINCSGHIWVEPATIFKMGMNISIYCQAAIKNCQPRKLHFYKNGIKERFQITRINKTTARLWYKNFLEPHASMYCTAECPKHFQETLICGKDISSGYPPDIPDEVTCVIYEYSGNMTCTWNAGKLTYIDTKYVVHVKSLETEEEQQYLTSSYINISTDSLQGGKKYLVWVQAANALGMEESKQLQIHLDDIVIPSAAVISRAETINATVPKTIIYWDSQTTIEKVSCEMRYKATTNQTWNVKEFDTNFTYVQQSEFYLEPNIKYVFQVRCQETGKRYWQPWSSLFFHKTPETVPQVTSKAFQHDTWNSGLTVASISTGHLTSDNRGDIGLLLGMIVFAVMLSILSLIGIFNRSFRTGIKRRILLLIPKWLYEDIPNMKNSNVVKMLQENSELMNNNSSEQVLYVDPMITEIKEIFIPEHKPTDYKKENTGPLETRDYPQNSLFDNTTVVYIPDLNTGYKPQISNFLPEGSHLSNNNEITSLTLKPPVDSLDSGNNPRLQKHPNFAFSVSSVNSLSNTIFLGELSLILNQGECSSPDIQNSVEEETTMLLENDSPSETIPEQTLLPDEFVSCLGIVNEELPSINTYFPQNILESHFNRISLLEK
The experiment can be described thus: cell-based or functional assay.

Starred links: 1 amine or outer side, 2 acyl side, 3 side chain; linkers in the order of their positions; H or OH if unused. Positions of bridges follow the written chain, without caps; N, C: chain ends. Non-standard residues stand in square brackets, D forms with d. No end group written: not given here. N,N‑dimethylasparagine = N,N-dimethylasparagine, CN(C)C(=O)C[C@H](N[*:1])C(=O)[*:2]; 2Nal(6-OH) = N[C@@H](Cc1ccc2cc(O)ccc2c1)C(=O)O; Trp(7-Me) = Cc1cccc2c(C[C@H](N)C(=O)O)c[nH]c12; d(hLys(Me3)) = C[N+](C)(C)CCCCC[C@@H](N)C(=O)O; AEF = NCCOc1ccc(C[C@H](N)C(=O)O)cc1; 3Pal = N[C@@H](Cc1cccnc1)C(=O)O; Pen = CC(C)(S)[C@H](N)C(=O)O; lipid = not defined here; Thp = NC1(C(=O)O)CCOCC1; Sar = CNCC(=O)O Where only a bound is given, the exact number is not on record here.

Regarding [(R)‑3‑carboxy‑2‑(4-(((R)-5-carboxy-5-hydrazineylpentyl)amino)-4-oxobutanamido)‑N,N,N‑trimethylpropan‑1‑aminium][Pen]NT[Trp(7-Me)]K(Ac)[Pen][2‑amino‑3‑(4-(2-aminoethoxy)phenyl)propanoic acid][2‑amino‑3‑(6-hydroxynaphthalen-2-yl)propanoic acid][Thp]EN[3Pal][Sar] (disulfide 2-7 (inferred); ends not checked) [SEQ ID NO: 266], the PBMC pSTAT3 IC50 is under 0.1 nM.

B1: SEQ ID NO: 241 (peptide)
peptide: [Pen]NT[Trp(7-Me)]K(Ac)[Pen][AEF][2Nal(6-OH)][Thp]K(Ac)N[3Pal][Sar]K(lipid)
modifications: disulfide 1-6 (inferred); ends not checked; also: Lys14 lipidated, lipid not given here
For B1, the PBMC pSTAT3 IC50 is under 1 nM.

B2: SEQ ID NO: 218 (peptide)
peptide: R[Pen]NT[Trp(7-Me)]K(Ac)[Pen][2‑amino‑3‑(4-(2-aminoethoxy)phenyl)propanoic acid][2‑amino‑3‑(6-hydroxynaphthalen-2-yl)propanoic acid][Thp]EN[3Pal][Sar]K(lipid)
modifications: disulfide 2-7 (inferred); ends not checked; also: Lys15 lipidated, lipid not given here
Consider B2, for which the PBMC pSTAT3 IC50 is over 1 nM.
To [(R)‑3‑carboxy‑2‑(4-(((R)-5-carboxy-5-hydrazineylpentyl)amino)-4-oxobutanamido)‑N,N,N‑trimethylpropan‑1‑aminium][Pen]NT[Trp(7-Me)]K(Ac)[Pen][2‑amino‑3‑(4-(2-aminoethoxy)phenyl)propanoic acid][2‑amino‑3‑(6-hydroxynaphthalen-2-yl)propanoic acid][Thp]EN[3Pal][Sar] (disulfide 2-7 (inferred); ends not checked) [SEQ ID NO: 265] belongs under 1 nM; to [(R)‑3‑carboxy‑2‑(4-(((R)-5-carboxy-5-hydrazineylpentyl)amino)-4-oxobutanamido)‑N,N,N‑trimethylpropan‑1‑aminium][Pen]NT[Trp(7-Me)]K(Ac)[Pen][2‑amino‑3‑(4-(2-aminoethoxy)phenyl)propanoic acid][2‑amino‑3‑(6-hydroxynaphthalen-2-yl)propanoic acid][Thp]EN[3Pal][Sar] (disulfide 2-7 (inferred); ends not checked) [SEQ ID NO: 263], under 1 nM.

B3: SEQ ID NO: 229 (peptide)
peptide: K(lipid)[Pen]NT[Trp(7-Me)]K(Ac)[Pen][AEF][2Nal(6-OH)][Thp]EN[3Pal][Sar]
modifications: disulfide 2-7 (inferred); ends not checked; also: Lys1 lipidated, lipid not given here
Molecule B3 showed a PBMC pSTAT3 IC50 of under 1 nM.

B4: SEQ ID NO: 256 (peptide)
peptide: [Pen]NT[Trp(7-Me)]K(Ac)[Pen][2‑amino‑3‑(4-(2-aminoethoxy)phenyl)propanoic acid][2‑amino‑3‑(6-hydroxynaphthalen-2-yl)propanoic acid][Thp]K(Ac)N[3Pal][Sar]K
modifications: disulfide 1-6 (inferred); not fully specified (residue 14); ends not checked; also: K14: lipidated lysine, lipid not given here
B4 had a PBMC pSTAT3 IC50 of under 1 nM.

B5: SEQ ID NO: 239 (peptide)
peptide: [d(hLys(Me3))][Pen][N,N‑dimethylasparagine]T[Trp(7-Me)]K(lipid)[Pen][AEF][2Nal(6-OH)][Thp]EN[3Pal][Sar]
modifications: disulfide 2-7 (inferred); ends not checked; also: Lys6 lipidated, lipid not given here
As for B5, the PBMC pSTAT3 IC50 is under 1 nM.
For the molecule [(R)‑3‑carboxy‑2‑(4-(((R)-5-carboxy-5-hydrazineylpentyl)amino)-4-oxobutanamido)‑N,N,N‑trimethylpropan‑1‑aminium][Pen]NT[Trp(7-Me)]K(Ac)[Pen][2‑amino‑3‑(4-(2-aminoethoxy)phenyl)propanoic acid][2‑amino‑3‑(6-hydroxynaphthalen-2-yl)propanoic acid][Thp]EN[3Pal][Sar] (disulfide 2-7 (inferred); ends not checked) [SEQ ID NO: 264], the PBMC pSTAT3 IC50 is under 0.01 nM.

B6: SEQ ID NO: 255 (peptide)
peptide: R[Pen]NT[Trp(7-Me)]K(Ac)[Pen][2‑amino‑3‑(4-(2-aminoethoxy)phenyl)propanoic acid][2‑amino‑3‑(6-hydroxynaphthalen-2-yl)propanoic acid][Thp]K(Ac)N[3Pal][Sar]K
modifications: disulfide 2-7 (inferred); not fully specified (residue 15); ends not checked; also: K15: lipidated lysine, lipid not given here
Turning to B6, the PBMC pSTAT3 IC50 was under 1 nM.

B7: SEQ ID NO: 221 (peptide)
peptide: R[Pen]NT[Trp(7-Me)]K(Ac)[Pen][2‑amino‑3‑(4-(2-aminoethoxy)phenyl)propanoic acid][2‑amino‑3‑(6-hydroxynaphthalen-2-yl)propanoic acid][Thp]K(Ac)N[3Pal][Sar]K(lipid)
modifications: disulfide 2-7 (inferred); ends not checked; also: Lys15 lipidated, lipid not given here
With B7, the PBMC pSTAT3 IC50 is over 1 nM.

B8: SEQ ID NO: 254 (peptide)
peptide: R[Pen]NT[Trp(7-Me)]K(Ac)[Pen][2‑amino‑3‑(4-(2-aminoethoxy)phenyl)propanoic acid][2‑amino‑3‑(6-hydroxynaphthalen-2-yl)propanoic acid][Thp]K(Ac)N[3Pal][Sar]K
modifications: disulfide 2-7 (inferred); not fully specified (residue 15); ends not checked; also: K15: lipidated lysine, lipid not given here
B8 showed a PBMC pSTAT3 IC50 of under 1 nM.
R[Pen]NT[Trp(7-Me)]K(Ac)[Pen][2‑amino‑3‑(4-(2-aminoethoxy)phenyl)propanoic acid][2‑amino‑3‑(6-hydroxynaphthalen-2-yl)propanoic acid][Thp]K(Ac)N[3Pal][Sar] (disulfide 2-7 (inferred); ends not checked) [SEQ ID NO: 220] showed a PBMC pSTAT3 IC50 of under 1 nM.

B9: SEQ ID NO: 244 (peptide)
peptide: R[Pen]NT[Trp(7-Me)]K(Ac)[Pen][AEF][2Nal(6-OH)][Thp]EN[3Pal][Sar]K(lipid)
modifications: disulfide 2-7 (inferred); ends not checked; also: Lys15 lipidated, lipid not given here
B9: the PBMC pSTAT3 IC50 was under 1 nM.
